B1: AEMLESVIKNY (SEQ ID NO: 321) (peptide)
peptide: AEMLESVIKNY
B2: SEFMQVIF (SEQ ID NO: 323) (peptide)
peptide: SEFMQVIF
B3: TDSIHAWTF (SEQ ID NO: 324) (peptide)
peptide: TDSIHAWTF
B4: QEMQHFLGL (SEQ ID NO: 326) (peptide)
peptide: QEMQHFLGL
B5: YEIEARNQVF (SEQ ID NO: 327) (peptide)
peptide: YEIEARNQVF
B6: NEHPSNNW (SEQ ID NO: 329) (peptide)
peptide: NEHPSNNW
B7: KEGDLGGKQW (SEQ ID NO: 330) (peptide)
peptide: KEGDLGGKQW
B8: EDAQGHIW (SEQ ID NO: 331) (peptide)
peptide: EDAQGHIW
B9: AETLSTIQI (SEQ ID NO: 333) (peptide)
peptide: AETLSTIQI
B10: SEGSEPALLHSW (SEQ ID NO: 338) (peptide)
peptide: SEGSEPALLHSW
B11: EEIEGKGSFTYF (SEQ ID NO: 341) (peptide)
peptide: EEIEGKGSFTYF
B12: HEFSSPSHL (SEQ ID NO: 342) (peptide)
peptide: HEFSSPSHL
B13: EEATGQFHVY (SEQ ID NO: 344) (peptide)
peptide: EEATGQFHVY
B14: ALNPYQYQY (SEQ ID NO: 347) (peptide)
peptide: ALNPYQYQY
B15: AEIQGNINHV (SEQ ID NO: 348) (peptide)
peptide: AEIQGNINHV
B16: AEQDMRELTY (SEQ ID NO: 349) (peptide)
peptide: AEQDMRELTY
B17: GECDVFKEIL (SEQ ID NO: 350) (peptide)
peptide: GECDVFKEIL
B18: EEVNYINTF (SEQ ID NO: 351) (peptide)
peptide: EEVNYINTF
B19: TEDPTILRI (SEQ ID NO: 354) (peptide)
peptide: TEDPTILRI
B20: EEGRVYLF (SEQ ID NO: 356) (peptide)
peptide: EEGRVYLF
B21: RELENCFQIQ (SEQ ID NO: 357) (peptide)
peptide: RELENCFQIQ
B22: AEVPTGVII (SEQ ID NO: 360) (peptide)
peptide: AEVPTGVII
B23: SEKGVIQVY (SEQ ID NO: 362) (peptide)
peptide: SEKGVIQVY
B24: AELDKLTSV (SEQ ID NO: 363) (peptide)
peptide: AELDKLTSV
B25: AETPIQNVI (SEQ ID NO: 364) (peptide)
peptide: AETPIQNVI
B26: GEVHPSEMI (SEQ ID NO: 367) (peptide)
peptide: GEVHPSEMI
B27: EEIERFFKL (SEQ ID NO: 369) (peptide)
peptide: EEIERFFKL
B28: MEMQKSPVF (SEQ ID NO: 373) (peptide)
peptide: MEMQKSPVF
B29: QENSYQSRL (SEQ ID NO: 477) (peptide)
peptide: QENSYQSRL
B30: SEIEQEIGSL (SEQ ID NO: 478) (peptide)
peptide: SEIEQEIGSL
B31: AEIQPQTQV (SEQ ID NO: 479) (peptide)
peptide: AEIQPQTQV
B32: RELQHEHSL (SEQ ID NO: 481) (peptide)
peptide: RELQHEHSL
B33: TEREWADEW (SEQ ID NO: 482) (peptide)
peptide: TEREWADEW
B34: EENDQSTHKW (SEQ ID NO: 483) (peptide)
peptide: EENDQSTHKW
B35: SEIEDSTKQVF (SEQ ID NO: 485) (peptide)
peptide: SEIEDSTKQVF
B36: ALLANLPAV (SEQ ID NO: 120) (peptide)
peptide: ALLANLPAV
B37: ALVDTLTGI (SEQ ID NO: 121) (peptide)
peptide: ALVDTLTGI
B38: ALLEMFPEITV (SEQ ID NO: 122) (peptide)
peptide: ALLEMFPEITV
B39: SVASVLLYL (SEQ ID NO: 124) (peptide)
peptide: SVASVLLYL
B40: VLQPFLPSI (SEQ ID NO: 125) (peptide)
peptide: VLQPFLPSI
B41: FLSTVTSV (SEQ ID NO: 126) (peptide)
peptide: FLSTVTSV
B42: GLDGSLVFL (SEQ ID NO: 127) (peptide)
peptide: GLDGSLVFL
B43: FLGTTPTL (SEQ ID NO: 128) (peptide)
peptide: FLGTTPTL
B44: VLYDKDAVYV (SEQ ID NO: 129) (peptide)
peptide: VLYDKDAVYV
B45: NLWGGQGLLGV (SEQ ID NO: 130) (peptide)
peptide: NLWGGQGLLGV
B46: LLKEFVQRV (SEQ ID NO: 131) (peptide)
peptide: LLKEFVQRV
B47: ALWLVDPLTV (SEQ ID NO: 132) (peptide)
peptide: ALWLVDPLTV
B48: MTLPVDAVISV (SEQ ID NO: 133) (peptide)
peptide: MTLPVDAVISV
B49: FSIPEGALVAV (SEQ ID NO: 388) (peptide)
peptide: FSIPEGALVAV
B50: TLMEQPLTTL (SEQ ID NO: 389) (peptide)
peptide: TLMEQPLTTL
B51: HIMPTVHTV (SEQ ID NO: 390) (peptide)
peptide: HIMPTVHTV
B52: SLIDMRGIETV (SEQ ID NO: 391) (peptide)
peptide: SLIDMRGIETV
B53: SLFKDQMEL (SEQ ID NO: 392) (peptide)
peptide: SLFKDQMEL
B54: ILLPYLQTL (SEQ ID NO: 393) (peptide)
peptide: ILLPYLQTL

Biological target: T1, HLA-B*44 (human)
T1 construct: MHC monomer made peptide-receptive by UV cleavage of a UV-sensitive ligand; also called peptide-receptive MHC class I monomer
Assay: UV peptide-exchange ELISA; +++ = yield >50%
Excerpt: Candidate peptides for T cell based therapies according to the present invention were further tested for their MHC binding capacity (affinity). The individual peptide-MHC complexes were produced by UV-ligand exchange, where a UV-sensitive peptide is cleaved upon UV-irradiation, and exchanged with the peptide of interest as analyzed. Only peptide candidates that can effectively bind and stabilize the peptide-receptive MHC molecules prevent dissociation of the MHC complexes. To determine the yield of the exchange reaction, an ELISA was performed based on the detection of the light chain (β2m) of stabilized MHC complexes. The assay was performed as generally described in Rodenko et al. (Rodenko et al., 2006).
96 well MAXISorp plates (NUNC) were coated over night with 2 ug/ml streptavidin in PBS at room temperature, washed 4× and blocked for 1 h at 37° C. in 2% BSA containing blocking buffer. […] Peptide-MHC monomers of the UV-exchange reaction were diluted 100-fold in blocking buffer. Samples were incubated for 1 h at 37° C., washed four times, incubated with 2 ug/ml HRP conjugated anti-β2m for 1h at 37° C., washed again and detected with TMB solution that is stopped with […]. Absorption was measured at 450 nm.

| Binder | peptide exchange yield [%] |
| --- | --- |
| B1 | 50 to 75 |
| B2 | 50 to 75 |
| B3 | 50 to 75 |
| B4 | 50 to 75 |
| B5 | 50 to 75 |
| B6 | 50 to 75 |
| B7 | 50 to 75 |
| B8 | 50 to 75 |
| B9 | 50 to 75 |
| B10 | 50 to 75 |
| B11 | 50 to 75 |
| B12 | 50 to 75 |
| B13 | 50 to 75 |
| B14 | 50 to 75 |
| B15 | 50 to 75 |
| B16 | 50 to 75 |
| B17 | 50 to 75 |
| B18 | 50 to 75 |

| Binder | peptide exchange yield [%] |
| --- | --- |
| B19 | 50 to 75 |
| B20 | 50 to 75 |
| B21 | 50 to 75 |
| B22 | 50 to 75 |
| B23 | 50 to 75 |
| B24 | 50 to 75 |
| B25 | 50 to 75 |
| B26 | 50 to 75 |
| B27 | 50 to 75 |
| B28 | 50 to 75 |
| B29 | 50 to 75 |
| B30 | 50 to 75 |
| B31 | 50 to 75 |
| B32 | 50 to 75 |
| B33 | 50 to 75 |
| B34 | 50 to 75 |
| B35 | 50 to 75 |

Biological target: T2, HLA-A*02 (human)
T2 construct: MHC monomer made peptide-receptive by UV cleavage of a UV-sensitive ligand; also called peptide-receptive MHC class I monomer
Assay: UV peptide-exchange ELISA; ++++ = yield >75%

| Binder | peptide exchange yield [%] |
| --- | --- |
| B36 | > 75 |
| B37 | > 75 |
| B38 | > 75 |
| B39 | > 75 |
| B40 | > 75 |
| B41 | > 75 |
| B42 | > 75 |
| B43 | > 75 |
| B44 | > 75 |
| B45 | > 75 |
| B46 | > 75 |
| B47 | > 75 |
| B48 | > 75 |
| B49 | > 75 |
| B50 | > 75 |
| B51 | > 75 |
| B52 | > 75 |
| B53 | > 75 |
| B54 | > 75 |

— patent publication US11352401
